Substitutions are numbered along the chain they refer to. In names and notes the source's numbering stands.
What was measured:
[1] = molecular target: 人CD27 (HEK::CD27细胞表达) (human) (UniProt P26842); assay: flow cytometry on cells expressing human CD27; set-up: concentration or dose not given beside the values
[2] = molecular target: T1, 人CD27蛋白 (Cat: 10039-H03H, Sino Biological Inc.) (human, UniProt P26842 20-192); assay: SPR (Reichert4), human CD27 protein on chip, antibody at 1.25e-8 as analyte
T1 construct: Bought recombinant protein coated on the SPR chip
T1 sequence (looked up): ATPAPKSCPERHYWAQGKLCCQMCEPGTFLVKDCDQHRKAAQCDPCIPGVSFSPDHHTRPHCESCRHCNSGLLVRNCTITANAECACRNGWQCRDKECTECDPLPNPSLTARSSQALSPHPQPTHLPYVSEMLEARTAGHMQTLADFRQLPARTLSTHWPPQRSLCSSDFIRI

[3] = molecular target: T1, 人CD27蛋白 (Cat: 10039-H03H, Sino …); assay: SPR (Reichert4), human CD27 protein on chip, antibody at 2.50e-8 as analyte
[4] = molecular target: T1, 人CD27蛋白 (Cat: 10039-H03H, Sino …); assay: SPR (Reichert4), human CD27 protein on chip, antibody at 5.00e-8 as analyte
[5] = molecular target: T1, 人CD27蛋白 (Cat: 10039-H03H, Sino …); assay: SPR (Reichert4), human CD27 protein on chip, antibody at 6.25e-9 as analyte
人CD27 (HEK::CD27细胞表达) = molecular target: T2, 人CD27 (HEK::CD27细胞表达) (human, UniProt P26842 20-260); assay: flow cytometry on HEK::CD27 cells, 10 ng and 100 ng antibody
T2 construct: whole, on cells; also called hCD27; 表达人CD27的细胞
T2 sequence (looked up): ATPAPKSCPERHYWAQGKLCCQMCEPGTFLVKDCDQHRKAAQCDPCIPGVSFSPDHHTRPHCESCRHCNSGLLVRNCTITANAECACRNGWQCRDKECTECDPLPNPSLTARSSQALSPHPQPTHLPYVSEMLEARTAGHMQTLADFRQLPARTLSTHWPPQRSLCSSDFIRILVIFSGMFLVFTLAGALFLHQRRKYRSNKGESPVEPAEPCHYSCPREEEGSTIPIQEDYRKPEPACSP

B1: 6D8 (antibody, V domains shown)
VH: QIQLVQSGPELKKPGETVKISCKASGYTFTNYGMNWVKQAPGKGLKWMGWINTNTGEPTYADDFKGRFAFSLETSATTAYLQINNLKNEDTATYFCAREGDGFDSWGQGTTLTVSS
VL: QFVLTQSPAIMSASPGEKVTMTCSATSSVNYMHWYQQKSGTSPKRWIYDTSRLASGVPARFSGSGSGTSYSLTISSMEAEDAATYYCQQWNTNPWTFGGGTKLEIK
notes: also called 6D8抗体; 鼠抗人CD27单克隆抗体6D8
With B1 the 结合率 [1] was greater than 85%, the Kd [2] was 514 pM and the koff [2] was 9.69e-05 s⁻¹. It also gave a kon [2] of 188000 M⁻¹ s⁻¹, a Kd [3] of 514 pM and a koff [3] of 9.69e-05 s⁻¹. The kon [3] was 188000 M⁻¹ s⁻¹, the Kd [4] was 514 pM and the koff [4] was 9.69e-05 s⁻¹. It also gave a kon [4] of 188000 M⁻¹ s⁻¹, a Kd [5] of 514 pM and a koff [5] of 9.69e-05 s⁻¹. For the same binder, the kon [5] was 188000 M⁻¹ s⁻¹.

B2: Varlilumab (antibody, V domains shown)
VH: QVQLVESGGGVVQPGRSLRLSCAASGFTFSSYDMHWVRQAPGKGLEWVAVIWYDGSNKYYADSVKGRFTISRDNSKNTLYLQMNSLRAEDTAVYYCARGSGNWGFFDYWGQGTLVTVSS
VL: DIQMTQSPSSLSASVGDRVTITCRASQGISRWLAWYQQKPEKAPKSLIYAASSLQSGVPSRFSGSGSGTDFTLTISSLQPEDFATYYCQQYNTYPRTFGQGTKVEIKR
B2 showed a Kd [2] of 1.85 pM, a koff [2] of 2.14e-07 s⁻¹ and a kon [2] of 116000 M⁻¹ s⁻¹. For the same binder, the Kd [3] was 1.85 pM, the koff [3] was 2.14e-07 s⁻¹ and the kon [3] was 116000 M⁻¹ s⁻¹. It also gave a Kd [4] of 1.85 pM, a koff [4] of 2.14e-07 s⁻¹ and a kon [4] of 116000 M⁻¹ s⁻¹. The Kd [5] was 1.85 pM, the koff [5] was 2.14e-07 s⁻¹ and the kon [5] was 116000 M⁻¹ s⁻¹.

B3: 6D8-G98A (antibody, human IgG4, V domains shown)
VH: B1 VH with G102A
VL: B1 VL
notes: also called 嵌合的6D8-G98A; 6D8-G98A(人鼠嵌合抗体)
B3: binds (人CD27 (HEK::CD27细胞表达)).
